Legend:
Experiment in all cases: EMSA; +++; EMSA: 20 mM HEPES pH 7.8, 200 mM NaCl, 2 mM MgCl2, 2 mM DTT, 4% glycerol, 30 or 100 ug/ml yeast tRNA, 5 nM RNA, 20 C; filter binding: 20 mM HEPES pH 7.4-7.5 (7.9 with She3p), 150 mM NaCl, 2 mM MgCl2, 2 mM DTT, 30 ug/ml yeast tRNA, 0.5 nM RNA; pull-down: HNMD buffer, 4 C
She3p (S348E) = target: T1, She3p (S348E) (Saccharomyces cerevisiae, UniProt P38272 1-425, S348E); details: protein: recombinant; tags: C-terminal His6; label: 32P; stem-loop
T1 sequence: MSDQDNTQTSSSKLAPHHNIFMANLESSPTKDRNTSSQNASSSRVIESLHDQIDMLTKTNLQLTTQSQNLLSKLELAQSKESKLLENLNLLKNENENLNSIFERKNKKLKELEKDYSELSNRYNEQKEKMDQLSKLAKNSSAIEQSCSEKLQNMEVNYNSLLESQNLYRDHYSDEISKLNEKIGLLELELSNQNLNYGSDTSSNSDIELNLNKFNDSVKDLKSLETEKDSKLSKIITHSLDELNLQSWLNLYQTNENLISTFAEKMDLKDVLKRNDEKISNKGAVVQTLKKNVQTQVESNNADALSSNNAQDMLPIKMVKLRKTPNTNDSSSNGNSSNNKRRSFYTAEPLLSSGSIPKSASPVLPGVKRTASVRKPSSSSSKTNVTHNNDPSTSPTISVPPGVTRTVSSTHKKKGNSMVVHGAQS

She3p (334-425) = target: T2, She3p (334-425) (Saccharomyces cerevisiae, UniProt P38272 334-425); details: protein: recombinant; tags: MBP and His6 (EMSA); His6 (SEC, cross-linking); label: 32P; stem-loop
T2 sequence: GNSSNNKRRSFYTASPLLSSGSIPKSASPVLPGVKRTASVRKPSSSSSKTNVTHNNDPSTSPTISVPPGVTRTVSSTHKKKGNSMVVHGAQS

She3p (L364A V367A) = target: T3, She3p (L364A V367A) (Saccharomyces cerevisiae, UniProt P38272 1-425, L364A;V367A); details: protein: recombinant; tags: C-terminal His6; label: 32P; stem-loop
T3 sequence: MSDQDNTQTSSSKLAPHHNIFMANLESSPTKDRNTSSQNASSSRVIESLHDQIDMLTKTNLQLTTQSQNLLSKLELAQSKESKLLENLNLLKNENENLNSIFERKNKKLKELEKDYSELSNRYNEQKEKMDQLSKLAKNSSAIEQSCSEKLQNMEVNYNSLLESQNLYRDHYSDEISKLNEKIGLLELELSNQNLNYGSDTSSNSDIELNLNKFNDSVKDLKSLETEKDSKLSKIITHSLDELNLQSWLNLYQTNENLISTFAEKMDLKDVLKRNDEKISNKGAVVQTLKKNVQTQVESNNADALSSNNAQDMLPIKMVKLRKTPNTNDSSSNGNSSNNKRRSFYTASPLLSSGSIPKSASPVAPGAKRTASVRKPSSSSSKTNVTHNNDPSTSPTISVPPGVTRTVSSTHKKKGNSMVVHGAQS

She3p (S343E S361E) = target: T4, She3p (S343E S361E) (Saccharomyces cerevisiae, UniProt P38272 1-425, S343E;S361E); details: protein: recombinant; tags: C-terminal His6; label: 32P; stem-loop
T4 sequence: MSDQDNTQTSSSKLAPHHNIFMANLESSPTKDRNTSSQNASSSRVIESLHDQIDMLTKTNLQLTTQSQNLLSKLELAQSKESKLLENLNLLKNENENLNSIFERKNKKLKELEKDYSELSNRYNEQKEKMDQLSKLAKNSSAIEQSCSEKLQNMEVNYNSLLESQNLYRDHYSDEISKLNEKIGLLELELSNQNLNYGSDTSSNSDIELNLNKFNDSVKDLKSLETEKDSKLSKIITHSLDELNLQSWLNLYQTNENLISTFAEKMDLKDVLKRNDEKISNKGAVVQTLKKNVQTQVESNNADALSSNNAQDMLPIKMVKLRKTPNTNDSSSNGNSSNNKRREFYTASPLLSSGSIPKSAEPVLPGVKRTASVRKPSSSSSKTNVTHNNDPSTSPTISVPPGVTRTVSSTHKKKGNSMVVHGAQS

Measured: binding result

B1: ASH1 E3-118 (structured_RNA)
RNA: GAGACAGUAGAGAAUUGAUACAUGGAUAACUGAAUCUCUUUCAACUAAUAAGAGACAUUAUCACGAAACAAUUGUACAUUUCUCUCCUUGUCUGUGCUAAAUAAACUACAAAUAAAAA
binds: all assays above

Reference: paper PMC3079584, “A Cytoplasmic Complex Mediates Specific mRNA Recognition and Localization in Yeast”
